Test results published in patent publication US20190212291.

Key:
PEG-T7-Q = molecular target: T1, PEG-T7-Q
T1 chain: GGPLGVRGKKC

B1: KLK14 (protein)
chain: IIGGHTCTRSSQPWQAALLAGPRRRFLCGGALLSGQWVITAAHCGRPILQVALGKHNLRRWEATQQVLRVVRQVTHPNYNSRTHDNDLMLLQLQQPARIGRAVRPIEVTQACASPGTSCRVSGWGTISSPIARYPASLQCVNINISPDEVCQKAYPRTITPGMVCAGVPQGGKDSCQGDSGGPLVCRGQLQGLVSWGMERCALPGYPGVYTNLCKYRSWIEETMRDK
For B1, the “Top hit (cleavage of PEG-coupled FRET substrate by recombinant proteases)” value (PEG-T49-Q) was “KLK14” and the “Top hit (cleavage of PEG-coupled FRET substrate by recombinant proteases)” value (PEG-T50-Q) was “KLK14”.

B2: KLK4 (protein)
chain: IINGEDCSPHSQPWQAALVMENELFCSGVLVHPQWVLSAAHCFQNSYTIGLGLHSLEADQEPGSQMVEASLSVRHPEYNRPLLANDLMLIKLDESVSESDTIRSISIASQCPTAGNSCLVSGWGLLANGRMPTVLQCVNVSVVSEEVCSKLYDPLYHPSMFCAGGGHDQKDSCNGDSGGPLICNGYLQGLVSFGKAPCGQVGVPGVYTNLCKFTEWIEKTVQAS
For B2, the “Top hit (cleavage of PEG-coupled FRET substrate by recombinant proteases)” value (PEG-T51-Q) was “KLK4” and the substrate cleavage (PEG-T51-Q) was “T40 and T51 are cleaved by MMP26 and KLK4, respectively”.

B3: MMP26 (protein)
chain: TSISPGRCKWNKHTLTYRIINYPHDMKPSAVKDSIYNAVSIWSNVTPLIFQQVQNGDADIKVSFWQWAHEDGWPFDGPGGILGHAFLPNSGNPGVVHFDKNEHWSASDTGYNLFLVATHEIGHSLGLQHSGNQSSIMYPTYWYHDPRTFQLSADDIQRIQHLYGEKCSSDIP
B3 was tested, and the “Second hit (cleavage of PEG-coupled FRET substrate by recombinant proteases)” value (“Second hit” below) (PEG-T53-Q) was “MMP26”, the “Second hit” value (PEG-T7-Q) was “MMP26” and the “Top hit (cleavage of PEG-coupled FRET substrate by recombinant proteases)” value (PEG-T40-Q) was “MMP26”. The substrate cleavage (PEG-T40-Q) was “T40 and T51 are cleaved by MMP26 and KLK4, respectively”.

B4: PRSS3 (protein)
chain: IVGGYTCEENSLPYQVSLNSGSHFCGGSLISEQWVVSAAHCYKTRIQVRLGEHNIKVLEGNEQFINAAKIIRHPKYNRDTLDNDIMLIKLSSPAVINARVSTISLPTTPPAAGTECLISGWGNTLSFGADYPDELKCLDAPVLTQAECKASYPGKITNSMFCVGFLEGGKDSCQRDSGGPVVCNGQLQGVVSWGHGCAWKNRPGVYTKVYNYVDWIKDTIAANS
B4 was tested, and the “Second hit” value (PEG-T49-Q) was “PRSS3” and the “Second hit” value (PEG-T58-Q) was “PRSS3”.

B5: KLK12 (protein)
chain: IFNGTECGRNSQPWQVGLFEGTSLRCGGVLIDHRWVLTAAHCSGSRYWVRLGEHSLSQLDWTEQIRHSGFSVTHPGYLGASTSHEHDLRLLRLRLPVRVTSSVQPLPLPNDCATAGTECHVSGWGITNHPRNPFPDLLQCLNLSIVSHATCHGVYPGRITSNMVCAGGVPGQDACQGDSGGPLVCGGVLQGLVSWGSVGPCGQDGIPGVYTYICKYVDWIRMIMRNN
With B5 the “Second hit” value (PEG-T50-Q) was “KLK12”.

B6: MMP11 (protein)
chain: FVLSGGRWEKTDLTYRILRFPWQLVQEQVRQTMAEALKVWSDVTPLTFTEVHEGRADIMIDFARYWHGDDLPFDGPGGILAHAFFPKTHREGDVHFDYDETWTIGDDQGTDLLQVAAHEFGHVLGLQHTTAAKALMSAFYTFRYPLSLSPDDCRGVQHLYGQPWPTVTSRTPALG
B6 was tested, and the “Top hit (cleavage of PEG-coupled FRET substrate by recombinant proteases)” value (PEG-T53-Q) was “MMP11”.

B7: ADAM12 (protein)
chain: ETLKATKYVELVIVADNREFQRQGKDLEKVKQRLIEIANHVDKFYRPLNIRIVLVGVEVWNDMDKCSVSQDPFTSLHEFLDWRKMKLLPRKSHDNAQLVSGVYFQGTTIGMAPIMSMCTADQSGGIVMDHSDNPLGAAVTLAHELGHNFGMNHDTLDRGCSCQMAVEKGGCIMNASTGYPFPMVFSSCSRKDLETSLEKGMGVCLFNLPEVRESFGGQKCGNRFVEEGEECDCGEPEECMNRCCNATTCTLKPDAVCAHGLCCEDCQLKPAGTACRDSSNSCDLPEFCTGASPHCPANVYLHDGHSCQDVDGYCYNGICQTHEQQCVTLWGPGAKPAPGICFERVNSAGDPYGNCGKVSKSSFAKCEMRDAKCGKIQCQGGASRPVIGTNAVSIETNIPLQQGGRILCRGTHVYLGDDMPDPGLVLAGTKCADGKICLNRQCQNISVFGVHECAMQCHGRGVCNNRKNCHCEAHWAPPFCDKFGFGGSTDSGPIRQADNQG
B7 was tested, and the “Top hit (cleavage of PEG-coupled FRET substrate by recombinant proteases); additional note: Poorly cleaved” value (PEG-T41-Q) was “ADAM12”, the “Second hit” value (PEG-T40-Q) was “ADAM12” and the “Top hit (cleavage of PEG-coupled FRET substrate by recombinant proteases)” value (PEG-T54-Q) was “ADAM12”.
